From article PMC7504508 (International Journal of Molecular Sciences, 2020) come the findings set out here.

By Kd is commonly meant the equilibrium constant for the complex coming apart.

This assay addresses calmodulin (UniProt P0DP23 1-149). Briefly: SPR; GST-Sumo-Cx35 fusion proteins captured by immobilised anti-GST antibodies on a CM5 chip (Biacore 2000); calmodulin as analyte, 3 nM to 30 µM; GST-Sumo reference flowcell subtracted; 1 mM free Ca2+, 0.5 mM free Mg2+, 140 mM KCl, 10 mM MOPS pH 7.2, 0.05% Tween 20; first order ligand binding model. The note with it: both partners purified. Background: In SPR one partner is held on a chip, and binding of the other changes the refractive index at the surface.

B1: GST-Sumo fusion protein of the perch Connexin 35 intracellular loop (amino acids 101-192) (domain or fragment)
chain: SAKQKERRYSTVYLTLDKDQDSLKRDESKKIKNTIVNGVLQNTENSTKEAEPDCLEVKEIPNSAMRTTKSKMRRQEGISRFYIIQVVFRNAL
B1 gave an equilibrium dissociation constant (Kd) of 6.29 µM.
